These results are taken from PMC11813584, “An odorant-binding protein functions in fire ant social immunity interfacing with innate immunity” (Open Biology, 2025).

The assay addresses T1, SiOBP15, purified, His-tag removed (Solenopsis invicta).
T1 construct: the ORF cloned into pET28a; also called purified SiOBP15; SiOBP15 protein (ligand); source: E. coli BL21, purified (Ni-Sepharose Cl-6B agarose), His-tag removed by protease cleavage
Briefly: SPR; open SPR; SiOBP15 coupled to a COOH chip until saturation, SiApoLp-III or SiFABP5 titrated as analyte; one-to-one model (TraceDrawer). As to conditions: both partners purified.

B1: SiApoLp-III, purified, His-tag removed (natural protein)
chain: EQSGTQPQLSDYIRDAQTAISSLGTQIQEHLNLPNQEELANTFKEQSTNFANNVQAYLQNITDEVKAKSPELEDFWTNMKTKLSEAVDNLHINPETTEQVNQLRAKFQEGVQTLVTESENAAKTISENSGKVQESIAKITKQAIDIAVKASQNLNQQLQQATTPQP
For orientation: Kd means the free concentration of one partner at which half of the binding sites on the other are occupied at equilibrium, for simple one-to-one binding. For B1, the Kd turned out to be 713 nM.
